# Test results taken from paper PMC9482650, “Quantitative fragmentomics allow affinity mapping of interactomes” (Nature Communications, 2022).
# T1: LRRC7, Q96NW7
# T1 sequence (Q96NW7 1440-1537, limits assumed, looked up): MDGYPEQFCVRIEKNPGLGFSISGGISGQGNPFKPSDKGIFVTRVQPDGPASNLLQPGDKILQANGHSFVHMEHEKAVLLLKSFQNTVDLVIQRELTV
# T2: SNTG2, Q9NY99
# T2 sequence (Q9NY99 68-166, limits assumed, looked up): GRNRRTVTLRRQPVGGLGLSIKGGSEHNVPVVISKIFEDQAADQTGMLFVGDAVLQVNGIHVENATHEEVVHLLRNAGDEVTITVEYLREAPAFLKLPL
# T3: NHERF3_3, Q5T2W1
# T3 sequence (Q5T2W1 238-333, limits assumed, looked up): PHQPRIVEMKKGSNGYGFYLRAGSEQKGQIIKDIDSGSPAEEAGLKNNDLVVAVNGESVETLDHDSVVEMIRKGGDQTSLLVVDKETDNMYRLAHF
# T4: PARD3B_1, Q8TEW8
# T4 sequence (Q8TEW8 196-299, limits assumed, looked up): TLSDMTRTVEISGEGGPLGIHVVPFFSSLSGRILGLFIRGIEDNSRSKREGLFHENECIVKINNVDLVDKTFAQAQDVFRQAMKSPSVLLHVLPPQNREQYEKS
# T5: NHERF3_1, Q5T2W1
# T5 sequence (Q5T2W1 4-100, limits assumed, looked up): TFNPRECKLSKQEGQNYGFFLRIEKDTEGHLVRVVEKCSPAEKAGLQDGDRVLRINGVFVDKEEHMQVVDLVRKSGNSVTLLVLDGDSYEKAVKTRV
# T6: CARD11, Q9BXL7
# T6 sequence (Q9BXL7 662-765, limits assumed, looked up): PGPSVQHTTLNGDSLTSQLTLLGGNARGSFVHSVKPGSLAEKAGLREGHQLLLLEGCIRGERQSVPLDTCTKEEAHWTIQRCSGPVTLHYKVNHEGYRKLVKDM
# T7: MPP6, Q9NZW5
# T7 sequence (Q9NZW5 125-219, limits assumed, looked up): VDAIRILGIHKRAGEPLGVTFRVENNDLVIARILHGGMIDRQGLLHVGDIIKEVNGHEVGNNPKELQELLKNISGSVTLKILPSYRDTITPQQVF
# T8: SNTG1, Q9NSN8
# T8 sequence (Q9NSN8 52-150, limits assumed, looked up): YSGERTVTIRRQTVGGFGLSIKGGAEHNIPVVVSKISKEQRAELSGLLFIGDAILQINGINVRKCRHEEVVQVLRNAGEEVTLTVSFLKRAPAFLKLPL
# T9: APBA1_2, Q02410
# T9 sequence (Q02410 742-832, limits assumed, looked up): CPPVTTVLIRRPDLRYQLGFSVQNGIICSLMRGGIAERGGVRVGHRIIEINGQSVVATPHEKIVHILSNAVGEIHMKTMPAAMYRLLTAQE
# Biological target: LNX1_1, Q8TBB1
# Sequence (Q8TBB1 261-371): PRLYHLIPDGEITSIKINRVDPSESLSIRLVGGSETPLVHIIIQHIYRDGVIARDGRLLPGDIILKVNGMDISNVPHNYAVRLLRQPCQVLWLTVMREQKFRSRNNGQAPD
# Experiment: holdup assay
# Design: key: below the threshold = too weak to quantify, mostly under pKd 3.1 to 4
# Settings: plain residues with an end cap or a label only (N-terminal biotin on a linker: ado-ado)
row,pKd,Binder
1,below the threshold,"RSPVATATSC [DUSP5, Q16690]"
2,below the threshold,"LVEEEEPMNL [HDAC7, Q8WUI4]"

# Biological target: SCRIB_3, Q14160
# Sequence (Q14160 999-1103): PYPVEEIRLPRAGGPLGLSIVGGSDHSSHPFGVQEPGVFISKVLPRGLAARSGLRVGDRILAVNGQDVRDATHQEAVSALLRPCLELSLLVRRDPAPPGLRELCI
# Experiment: holdup assay
# Design: key: below the threshold = too weak to quantify, mostly under pKd 3.1 to 4
# Settings: plain residues with an end cap or a label only (N-terminal biotin on a linker: ado-ado)
row,pKd,Binder
1,3.56,"RSPVATATSC [DUSP5, Q16690]"
2,below the threshold,"LVEEEEPMNL [HDAC7, Q8WUI4]"

# Biological target: SCRIB_1, Q14160
# Sequence (Q14160 718-814): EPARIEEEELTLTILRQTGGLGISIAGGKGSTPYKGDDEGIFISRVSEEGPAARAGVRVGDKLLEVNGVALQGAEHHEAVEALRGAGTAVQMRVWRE
# Experiment: holdup assay
# Design: key: below the threshold = too weak to quantify, mostly under pKd 3.1 to 4
# Settings: plain residues with an end cap or a label only (N-terminal biotin on a linker: ado-ado)
row,pKd,Binder
1,below the threshold,"RSPVATATSC [DUSP5, Q16690]"
2,below the threshold,"LVEEEEPMNL [HDAC7, Q8WUI4]"

# Biological target: TJP1_3, Q07157
# Sequence (Q07157 416-512): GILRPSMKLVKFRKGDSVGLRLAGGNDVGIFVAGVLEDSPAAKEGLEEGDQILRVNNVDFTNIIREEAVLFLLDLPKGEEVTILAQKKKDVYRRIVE
# Experiment: holdup assay
# Design: key: below the threshold = too weak to quantify, mostly under pKd 3.1 to 4
# Settings: plain residues with an end cap or a label only (N-terminal biotin on a linker: ado-ado)
row,pKd,Binder
1,below the threshold,"RSPVATATSC [DUSP5, Q16690]"
2,below the threshold,"LVEEEEPMNL [HDAC7, Q8WUI4]"

# Biological target: AHNAK1, Q09666
# Sequence (Q09666 4-100): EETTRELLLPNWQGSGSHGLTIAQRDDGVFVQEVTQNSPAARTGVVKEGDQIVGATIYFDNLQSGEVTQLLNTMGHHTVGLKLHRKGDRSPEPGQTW
# Experiment: holdup assay
# Design: key: below the threshold = too weak to quantify, mostly under pKd 3.1 to 4
# Settings: plain residues with an end cap or a label only (N-terminal biotin on a linker: ado-ado)
row,pKd,Binder
1,below the threshold,"RSPVATATSC [DUSP5, Q16690]"
2,below the threshold,"LVEEEEPMNL [HDAC7, Q8WUI4]"

# Biological target: LDB3, O75112
# Sequence (O75112 1-94): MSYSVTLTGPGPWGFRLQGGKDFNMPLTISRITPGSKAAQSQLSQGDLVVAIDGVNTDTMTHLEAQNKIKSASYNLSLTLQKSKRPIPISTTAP
# Experiment: holdup assay
# Design: key: below the threshold = too weak to quantify, mostly under pKd 3.1 to 4
# Settings: plain residues with an end cap or a label only (N-terminal biotin on a linker: ado-ado)
row,pKd,Binder
1,below the threshold,"RSPVATATSC [DUSP5, Q16690]"
2,below the threshold,"LVEEEEPMNL [HDAC7, Q8WUI4]"

# Biological target: T1, LRRC7, Q96NW7
# Experiment: holdup assay
# Design: key: below the threshold = too weak to quantify, mostly under pKd 3.1 to 4
# Settings: plain residues with an end cap or a label only (N-terminal biotin on a linker: ado-ado)
row,pKd,Binder
1,below the threshold,"RSPVATATSC [DUSP5, Q16690]"
2,below the threshold,"LVEEEEPMNL [HDAC7, Q8WUI4]"

# Biological target: T2, SNTG2, Q9NY99
# Experiment: holdup assay
# Design: key: below the threshold = too weak to quantify, mostly under pKd 3.1 to 4
# Settings: plain residues with an end cap or a label only (N-terminal biotin on a linker: ado-ado)
row,pKd,Binder
1,below the threshold,"RSPVATATSC [DUSP5, Q16690]"
2,below the threshold,"LVEEEEPMNL [HDAC7, Q8WUI4]"

# Biological target: DLG5_1, Q8TDM6
# Sequence (Q8TDM6 617-713): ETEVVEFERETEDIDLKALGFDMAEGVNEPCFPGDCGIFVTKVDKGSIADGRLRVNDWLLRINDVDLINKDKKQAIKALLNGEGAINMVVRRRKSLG
# Experiment: holdup assay
# Design: key: below the threshold = too weak to quantify, mostly under pKd 3.1 to 4
# Settings: plain residues with an end cap or a label only (N-terminal biotin on a linker: ado-ado)
row,pKd,Binder
1,below the threshold,"RSPVATATSC [DUSP5, Q16690]"
2,below the threshold,"LVEEEEPMNL [HDAC7, Q8WUI4]"

# Biological target: T3, NHERF3_3, Q5T2W1
# Experiment: holdup assay
# Design: key: below the threshold = too weak to quantify, mostly under pKd 3.1 to 4
# Settings: plain residues with an end cap or a label only (N-terminal biotin on a linker: ado-ado)
row,pKd,Binder
1,below the threshold,"RSPVATATSC [DUSP5, Q16690]"
2,below the threshold,"LVEEEEPMNL [HDAC7, Q8WUI4]"

# Biological target: IL16_1, Q14005
# Sequence (Q14005 210-306): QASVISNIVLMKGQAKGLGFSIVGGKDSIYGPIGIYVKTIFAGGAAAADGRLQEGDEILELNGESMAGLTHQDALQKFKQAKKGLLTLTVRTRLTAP
# Experiment: holdup assay
# Design: key: below the threshold = too weak to quantify, mostly under pKd 3.1 to 4
# Settings: plain residues with an end cap or a label only (N-terminal biotin on a linker: ado-ado)
row,pKd,Binder
1,below the threshold,"RSPVATATSC [DUSP5, Q16690]"
2,below the threshold,"LVEEEEPMNL [HDAC7, Q8WUI4]"

# Biological target: T4, PARD3B_1, Q8TEW8
# Experiment: holdup assay
# Design: key: below the threshold = too weak to quantify, mostly under pKd 3.1 to 4
# Settings: plain residues with an end cap or a label only (N-terminal biotin on a linker: ado-ado)
row,pKd,Binder
1,below the threshold,"RSPVATATSC [DUSP5, Q16690]"
2,below the threshold,"LVEEEEPMNL [HDAC7, Q8WUI4]"

# Biological target: IL16_4, Q14005
# Sequence (Q14005 1229-1329): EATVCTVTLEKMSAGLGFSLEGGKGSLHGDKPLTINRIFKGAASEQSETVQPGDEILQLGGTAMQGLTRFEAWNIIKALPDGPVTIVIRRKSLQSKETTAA
# Experiment: holdup assay
# Design: key: below the threshold = too weak to quantify, mostly under pKd 3.1 to 4
# Settings: plain residues with an end cap or a label only (N-terminal biotin on a linker: ado-ado)
row,pKd,Binder
1,below the threshold,"RSPVATATSC [DUSP5, Q16690]"
2,below the threshold,"LVEEEEPMNL [HDAC7, Q8WUI4]"

# Biological target: Inadl_3, Q8NI35
# Sequence (Q8NI35 359-469): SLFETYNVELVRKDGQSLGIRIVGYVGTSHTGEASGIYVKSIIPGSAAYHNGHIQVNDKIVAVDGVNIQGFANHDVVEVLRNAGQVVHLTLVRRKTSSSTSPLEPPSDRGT
# Experiment: holdup assay
# Design: key: below the threshold = too weak to quantify, mostly under pKd 3.1 to 4
# Settings: plain residues with an end cap or a label only (N-terminal biotin on a linker: ado-ado)
row,pKd,Binder
1,below the threshold,"RSPVATATSC [DUSP5, Q16690]"
2,below the threshold,"LVEEEEPMNL [HDAC7, Q8WUI4]"

# Biological target: GRASP, Q7Z6J2
# Sequence (Q7Z6J2 96-193): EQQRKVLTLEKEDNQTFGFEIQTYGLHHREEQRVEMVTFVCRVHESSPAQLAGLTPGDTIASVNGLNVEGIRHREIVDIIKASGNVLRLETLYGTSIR
# Experiment: holdup assay
# Design: key: below the threshold = too weak to quantify, mostly under pKd 3.1 to 4
# Settings: plain residues with an end cap or a label only (N-terminal biotin on a linker: ado-ado)
row,pKd,Binder
1,below the threshold,"RSPVATATSC [DUSP5, Q16690]"
2,below the threshold,"LVEEEEPMNL [HDAC7, Q8WUI4]"

# Biological target: NHERF4_4, Q86UT5
# Sequence (Q86UT5 464-550): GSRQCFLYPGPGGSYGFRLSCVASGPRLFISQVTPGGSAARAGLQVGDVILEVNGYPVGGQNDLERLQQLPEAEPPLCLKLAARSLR
# Experiment: holdup assay
# Design: key: below the threshold = too weak to quantify, mostly under pKd 3.1 to 4
# Settings: plain residues with an end cap or a label only (N-terminal biotin on a linker: ado-ado)
row,pKd,Binder
1,below the threshold,"RSPVATATSC [DUSP5, Q16690]"
2,3.78,"LVEEEEPMNL [HDAC7, Q8WUI4]"

# Biological target: DLG2_2, Q15700
# Sequence (Q15700 189-283): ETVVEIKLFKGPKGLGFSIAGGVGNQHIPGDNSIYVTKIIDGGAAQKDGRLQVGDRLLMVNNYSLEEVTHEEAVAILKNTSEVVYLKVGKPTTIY
# Experiment: holdup assay
# Design: key: below the threshold = too weak to quantify, mostly under pKd 3.1 to 4
# Settings: plain residues with an end cap or a label only (N-terminal biotin on a linker: ado-ado)
row,pKd,Binder
1,below the threshold,"RSPVATATSC [DUSP5, Q16690]"
2,below the threshold,"LVEEEEPMNL [HDAC7, Q8WUI4]"

# Biological target: MAGI2_3, Q86UL8
# Sequence (Q86UL8 600-682): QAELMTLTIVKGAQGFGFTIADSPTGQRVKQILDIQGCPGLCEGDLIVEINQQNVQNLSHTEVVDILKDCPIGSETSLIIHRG
# Experiment: holdup assay
# Design: key: below the threshold = too weak to quantify, mostly under pKd 3.1 to 4
# Settings: plain residues with an end cap or a label only (N-terminal biotin on a linker: ado-ado)
row,pKd,Binder
1,below the threshold,"RSPVATATSC [DUSP5, Q16690]"
2,below the threshold,"LVEEEEPMNL [HDAC7, Q8WUI4]"

# Biological target: T5, NHERF3_1, Q5T2W1
# Experiment: holdup assay
# Design: key: below the threshold = too weak to quantify, mostly under pKd 3.1 to 4
# Settings: plain residues with an end cap or a label only (N-terminal biotin on a linker: ado-ado)
row,pKd,Binder
1,3.53,"RSPVATATSC [DUSP5, Q16690]"
2,below the threshold,"LVEEEEPMNL [HDAC7, Q8WUI4]"

# Biological target: T6, CARD11, Q9BXL7
# Experiment: holdup assay
# Design: key: below the threshold = too weak to quantify, mostly under pKd 3.1 to 4
# Settings: plain residues with an end cap or a label only (N-terminal biotin on a linker: ado-ado)
row,pKd,Binder
1,below the threshold,"RSPVATATSC [DUSP5, Q16690]"
2,below the threshold,"LVEEEEPMNL [HDAC7, Q8WUI4]"

# Biological target: DLG1_3, Q12959
# Sequence (Q12959 457-571): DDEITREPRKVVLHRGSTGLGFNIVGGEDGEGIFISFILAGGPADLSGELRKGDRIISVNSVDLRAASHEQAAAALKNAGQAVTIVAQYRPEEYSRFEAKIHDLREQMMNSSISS
# Experiment: holdup assay
# Design: key: below the threshold = too weak to quantify, mostly under pKd 3.1 to 4
# Settings: plain residues with an end cap or a label only (N-terminal biotin on a linker: ado-ado)
row,pKd,Binder
1,below the threshold,"RSPVATATSC [DUSP5, Q16690]"
2,below the threshold,"LVEEEEPMNL [HDAC7, Q8WUI4]"

# Biological target: T7, MPP6, Q9NZW5
# Experiment: holdup assay
# Design: key: below the threshold = too weak to quantify, mostly under pKd 3.1 to 4
# Settings: plain residues with an end cap or a label only (N-terminal biotin on a linker: ado-ado)
row,pKd,Binder
1,below the threshold,"RSPVATATSC [DUSP5, Q16690]"
2,3.57,"LVEEEEPMNL [HDAC7, Q8WUI4]"

# Biological target: LIMK2, P53671
# Sequence (P53671 143-248): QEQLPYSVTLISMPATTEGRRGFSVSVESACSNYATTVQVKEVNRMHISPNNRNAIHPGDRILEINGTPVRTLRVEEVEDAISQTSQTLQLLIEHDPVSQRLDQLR
# Experiment: holdup assay
# Design: key: below the threshold = too weak to quantify, mostly under pKd 3.1 to 4
# Settings: plain residues with an end cap or a label only (N-terminal biotin on a linker: ado-ado)
row,pKd,Binder
1,below the threshold,"RSPVATATSC [DUSP5, Q16690]"
2,below the threshold,"LVEEEEPMNL [HDAC7, Q8WUI4]"

# Biological target: GRIP2_6, Q9C0E4
# Sequence (Q9C0E4 648-740): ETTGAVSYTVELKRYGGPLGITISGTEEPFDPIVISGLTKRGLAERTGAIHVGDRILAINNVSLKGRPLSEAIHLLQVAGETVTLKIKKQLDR
# Experiment: holdup assay
# Design: key: below the threshold = too weak to quantify, mostly under pKd 3.1 to 4
# Settings: plain residues with an end cap or a label only (N-terminal biotin on a linker: ado-ado)
row,pKd,Binder
1,below the threshold,"RSPVATATSC [DUSP5, Q16690]"
2,below the threshold,"LVEEEEPMNL [HDAC7, Q8WUI4]"

# Biological target: T8, SNTG1, Q9NSN8
# Experiment: holdup assay
# Design: key: below the threshold = too weak to quantify, mostly under pKd 3.1 to 4
# Settings: plain residues with an end cap or a label only (N-terminal biotin on a linker: ado-ado)
row,pKd,Binder
1,below the threshold,"RSPVATATSC [DUSP5, Q16690]"
2,below the threshold,"LVEEEEPMNL [HDAC7, Q8WUI4]"

# Biological target: PICK1, Q9NRD5
# Sequence (Q9NRD5 17-115): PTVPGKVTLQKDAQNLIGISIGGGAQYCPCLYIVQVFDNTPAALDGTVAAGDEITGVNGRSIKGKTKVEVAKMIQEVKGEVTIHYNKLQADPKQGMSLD
# Experiment: holdup assay
# Design: key: below the threshold = too weak to quantify, mostly under pKd 3.1 to 4
# Settings: plain residues with an end cap or a label only (N-terminal biotin on a linker: ado-ado)
row,pKd,Binder
1,3.97,"RSPVATATSC [DUSP5, Q16690]"
2,4.11,"LVEEEEPMNL [HDAC7, Q8WUI4]"

# Biological target: PTPN3, P26045
# Sequence (P26045 505-587): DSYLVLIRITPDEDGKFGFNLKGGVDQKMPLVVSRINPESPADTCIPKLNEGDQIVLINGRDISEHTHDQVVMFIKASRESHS
# Experiment: holdup assay
# Design: key: below the threshold = too weak to quantify, mostly under pKd 3.1 to 4
# Settings: plain residues with an end cap or a label only (N-terminal biotin on a linker: ado-ado)
row,pKd,Binder
1,4.05,"RSPVATATSC [DUSP5, Q16690]"
2,4.04,"LVEEEEPMNL [HDAC7, Q8WUI4]"

# Biological target: T9, APBA1_2, Q02410
# Experiment: holdup assay
# Design: key: below the threshold = too weak to quantify, mostly under pKd 3.1 to 4
# Settings: plain residues with an end cap or a label only (N-terminal biotin on a linker: ado-ado)
row,pKd,Binder
1,below the threshold,"RSPVATATSC [DUSP5, Q16690]"
2,below the threshold,"LVEEEEPMNL [HDAC7, Q8WUI4]"
